Cell death and PD-L1 expression data for 1 molecule are collected here from US11147875B2, “Compositions, combinations and related methods for photoimmunotherapy” (priority 2015, dated 2021).

The test system of one assay is BxPC3 cells. The assay can be described thus: Effect of interferon gamma on cell death. The class given is cell-based. The note with it: 0 ng/mL to 3.75 μg/mL, 18 hours. How it is done:
BxPC3 cells (#CRL-1687, ATCC, Manassas Va.) were seeded in 96 well black, clear-flat bottom dishes at 5000 cells per well, and placed in at 37° C., 5% CO2 incubator. The following day, the cells were washed once with RPMI 1640 supplemented with 10% FBS and 1% Penicillin/Streptomyocin (complete culture media). The cells were then incubated for 18 hours with complete culture media containing different concentrations of recombinant human Interferon Gamma (IFNgamma) (carrier free) (Cat No: 570202, BioLegend, San Diego, Calif.) ranging from 0 ng/mL to 3.75 μg/mL.
After 18 hours, the media containing different concentrations of interferon gamma was replaced with complete culture media containing 1× CellTox Green (Cat No: G8731, Promega, Madison, Wis.). […] The CellTox Green fluorescence signal was measured at 24.5 hours after light treatment using a fluorescence plate reader. The cells were then lysed with detergent, incubated at 37° C. for 30 minutes, and the CellTox Green fluorescence signal was measured again post lysis. The percent dead cells was calculated by taking the ratio between background (1× CellTox Green in complete culture media without cells) subtracted CellTox Green signal per well prior to and post lysis and multiplying the ratio by 100.

A further assay concerns PD-L1. As to the kind of experiment: Effect of interferon gamma on PD-L1 expression, flow cytometry. The format is cell-based. The note with it: 375 pg/mL, 37.5 ng/mL, 18 hours; BxPC3 cells. How it is done:
BxPC3 cells were seeded in 12 well dishes at 145,000 cells per well, and placed at 37° C. in a 5% CO2 incubator. The following day, the cells were washed once with RPMI 1640 supplemented with 10% FBS and 1% Penicillin/Streptomyocin (complete culture media). The cells were then incubated for 18 hours with complete culture media alone, complete culture media containing 375 pg/mL of recombinant human Interferon Gamma (carrier free) (Cat No: 570202, BioLegend, San Diego, Calif.), or complete culture media containing 37.5 ng/mL recombinant human Interferon Gamma (carrier free). After the 18 hour incubation with or without recombinant interferon gamma, the BxPC3 cells were washed one time with complete culture media. […]
After the one hour incubation, the cells were washed three times with phosphate buffer saline (pH 7) and incubated with enzyme free cell dissociation buffer (Catalog No: S-014-C, EMD Millipore, Billerica, Mass.) until cells were detached. After the cells detached, phosphate buffer saline containing 0.5% bovine serum albumin fraction V (Catalog No: 15260-037, ThermoFisher Scientific, Waltham, Mass.) was added to the cells, and the samples were immediately analyzed by flow cytometry for PD-L1 expression based on the fluorescent signal from the IR700 dye of the anti-PD-L1-IRDye 700DX. […]

B1: IFNgamma: recombinant human Interferon Gamma (carrier free) (protein, UniProt P01579 24-161, looked up)
Interferon gamma: QDPYVKEAENLKKYFNAGHSDVADNGTLFLGILKNWKEESDRKIMQSQIVSFYFKLFKNFKDDQSIQKSVETIKEDMNVKFFNSNKKKRDDFEKLTNYSVTDLNVQRKAIHELIQVMAELSPAAKTGKRKRSQMLFRG
Regarding B1, the cell death entry in the assay on BxPC3 cells is on record as “dose-dependent increase in cell death”. Also, the PD-L1 expression entry in the assay on PD-L1 was “dose-dependent increase in PD-L1 expression”.
